# Data published in article PMC4173154 (Genes & Development, 2014).
# Target: native Drosophila core histones (Drosophila, UniProt P84051 1-124; P02283 1-123; P02299 1-136; P84040 1-103)
# Test: co-sedimentation
binder,measurement,value
"recombinant Drosophila NLP, C-terminal 6-His tag (natural protein) MAEESFYGVTLTAESDSVTWDVDEDYARGQKLVIKQILLGAEAKENEFNVVEVNTPKDSVQIPIAVLKAGETRAVNPDVEFYESKVTFKLIKGSGPVYIHGHNIKDDVEVVDMEEDDEEDDVAEDEEDEHPKKRAKIENAADGKNAKNNKKK",binding result,binds
